Measurements from US20200317768A1 (published 2020).
Substitutions are numbered along the chain they refer to.

What was measured:
Assay in all cases: SPR (BIACORE), antibody captured, FcγR analyte
[1] = molecular target: T1, cynomolgus monkey FcγRIIa1 extracellular domain, C-terminal His-tag (cynomolgus monkey)
T1 construct: also called cyno FcγRIIa1; cynoFcgRIIa1; not shown: His-tag added to C-terminus
T1 chain: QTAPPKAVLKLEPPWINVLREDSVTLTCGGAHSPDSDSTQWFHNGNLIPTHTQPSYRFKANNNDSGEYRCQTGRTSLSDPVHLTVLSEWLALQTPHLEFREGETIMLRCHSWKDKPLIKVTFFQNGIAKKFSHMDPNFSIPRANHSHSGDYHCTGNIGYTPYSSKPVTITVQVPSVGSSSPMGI

[2] = molecular target: T2, cynomolgus monkey FcγRIIa2 extracellular domain, C-terminal His-tag (cynomolgus monkey)
T2 construct: also called cyno FcγRIIa2; cynoFcgRIIa2; not shown: His-tag added to C-terminus
T2 chain: T1 chain with P95T, T121A, I127K, A128S, K130N, D135N, R142Q

[3] = molecular target: T3, cynomolgus monkey FcγRIIa3 extracellular domain, C-terminal His-tag (cynomolgus monkey)
T3 construct: also called cyno FcγRIIa3; cynoFcgRIIa3; not shown: His-tag added to C-terminus
T3 chain: T1 chain with P95T, T121A, A128S, H133P, D135N

[4] = molecular target: T4, cynomolgus monkey FcγRIIb extracellular domain, C-terminal His-tag (cynomolgus monkey)
T4 construct: also called cyno FcγRIIb; cynoFcγRIIb; not shown: His-tag added to C-terminus
T4 chain: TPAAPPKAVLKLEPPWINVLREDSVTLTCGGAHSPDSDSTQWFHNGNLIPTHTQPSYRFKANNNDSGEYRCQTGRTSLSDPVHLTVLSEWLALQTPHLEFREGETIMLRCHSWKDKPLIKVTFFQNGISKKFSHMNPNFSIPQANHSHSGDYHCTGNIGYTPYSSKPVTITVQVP

[5] = molecular target: T5, human FcγRIIb extracellular domain, C-terminal His-tag (human, UniProt P31994 43-217)
T5 construct: also called humanFcgRIIb; not shown: His-tag added to C-terminus
T5 sequence: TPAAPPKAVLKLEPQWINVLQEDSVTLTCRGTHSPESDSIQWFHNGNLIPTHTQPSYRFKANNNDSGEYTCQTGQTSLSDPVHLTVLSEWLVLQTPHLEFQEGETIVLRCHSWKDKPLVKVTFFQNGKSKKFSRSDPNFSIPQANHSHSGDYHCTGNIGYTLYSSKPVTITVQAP

Kd [1]: 4.8 µM
Kd [2]: 4.7 µM
Kd [3]: 8.6 µM
Kd [4]: 1.9 µM
Kd [5]: 4.7 µM
B1: MS_M103205H795-SG1/M103202L889-SK1 (antibody, human IgG1, kappa)
heavy: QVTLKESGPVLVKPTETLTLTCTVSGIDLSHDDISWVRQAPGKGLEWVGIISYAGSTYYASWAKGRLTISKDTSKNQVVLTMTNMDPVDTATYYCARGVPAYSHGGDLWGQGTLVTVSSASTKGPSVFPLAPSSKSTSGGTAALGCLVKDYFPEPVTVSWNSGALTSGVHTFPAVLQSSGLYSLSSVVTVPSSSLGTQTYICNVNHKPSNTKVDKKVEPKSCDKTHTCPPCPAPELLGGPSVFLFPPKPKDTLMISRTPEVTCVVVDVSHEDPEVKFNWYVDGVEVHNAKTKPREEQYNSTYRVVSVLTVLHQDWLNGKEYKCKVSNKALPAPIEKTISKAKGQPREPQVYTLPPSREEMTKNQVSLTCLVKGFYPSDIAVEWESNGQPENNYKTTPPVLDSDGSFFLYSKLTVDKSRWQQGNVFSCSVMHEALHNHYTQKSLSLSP
light: DIVMTQSPATLSLSPGERATLSCTSSQSVYHANWLSWFQQKPGQPPKLLIYWASTLAYGVPSRFSGSGSGTDFTLTISSLQPEDAATYYCAGGYGGGRYAFGQGTKVEIKRTVAAPSVFIFPPSDEQLKSGTASVVCLLNNFYPREAKVQWKVDNALQSGNSQESVTEQDSKDSTYSLSSTLTLSKADYEKHKVYACEVTHQGLSSPVTKSFNRGEC
notes: Parent antibody with SG1 human heavy chain constant region; also called MS1032LO06-SG1
